The values below come from patent US20240376207A1 (JIANGSU HENGRUI PHARMACEUTICALS, published 2024).

Test [1] addresses cynomolgus monkey TIGIT recombinant protein (cynomolgus monkey, UniProt A0A7N9I9V4 89-209). Description: ELISA, coated antigen. The method, then:
(§1) A human, cynomolgus monkey, or mouse PVRIG protein (at a concentration of 1 μg/mL) was coated on a 96-well microplate at 100 μL per well, and incubated overnight at 4° C. The plate was washed three times with wash buffer at 250 μL per well. For each wash, the plate was shaken for 10 s to ensure adequate cleaning. A blocking solution (PBS+0.05% Tween20+1% BSA) was added at 300 μL/well, and the plate was incubated at room temperature for 1 h. The plate was washed three times with wash buffer at 250 μL per well. For each wash, the plate was shaken for 10 s to ensure adequate cleaning. Dilutions of the test anti-PVRIG antibodies were added at 100 μL/well. The plate was incubated at 37° C. for 1 h. The plate was washed three times with wash buffer at 250 μL per well. The […] anti-human IgG secondary antibody (Sigma, A8667) was added at 100 μL per well. The plate was incubated at 37° C. for 1 h. The plate was washed three times with wash buffer at 250 μL per well. TMB was added at 100 μL/well, and the plate was incubated in the dark for 15 min. 0.16 M sulfuric acid was added at 50 μL/well. The OD values at 450 nm were read by using a Thermo MultiSkanFc microplate reader, and the EC₅₀ values of the binding of the anti-PVRIG antibodies to PVRIG were calculated.
(§2) Similarly to Examples 4, 5 and 6, the binding of humanized anti-PVRIG/TIGIT bispecific antibodies to human and cynomolgus monkey TIGIT and blocking of binding of human TIGIT to ligand were detected, where PVRIG protein was replaced with TIGIT and PVRL2 was replaced with PVR.
On the technique in general: In an ELISA, binding on a coated surface is turned into a signal by an enzyme label.

The target in test [2] is T1, human PVRIG antigen (AcroBiosystem, PVG-H52H4) (human, UniProt Q6DKI7 41-171, limits assumed).
T1 sequence (looked up): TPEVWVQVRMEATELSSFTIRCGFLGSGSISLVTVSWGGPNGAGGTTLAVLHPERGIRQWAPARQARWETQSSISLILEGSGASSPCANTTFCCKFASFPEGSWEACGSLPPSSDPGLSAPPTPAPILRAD
Description: SPR (Biacore X100), antibody captured on Protein A chip, 1:1 fit. From the text: The affinity of the humanized bispecific antibodies for human PVRIG, cynomolgus monkey PVRIG and human TIGIT was detected using Biacore. Humanized bispecific antibodies were each captured on a Protein A biosensor chip (GE lifesciences, 29127557) of a Biacore instrument (Biacore X100, GE), and then human PVRIG antigen (AcroBiosystem, PVG-H52H4), cynomolgus monkey PVRIG antigen (SEQ ID NO: 1), or human TIGIT antigen (AcroBiosystem, TIT-H52H3) at a series of concentration gradients each flowed over the chip surface. The reaction signals were detected in real time using a Biacore instrument (Biacore X100, GE) to obtain association and dissociation curves. The data obtained from the experiment were fitted using the (1:1) Binding model with the BiacoreX100 evaluation software 2.0 GE to obtain affinity values (see Table 31).
For orientation: In SPR one partner is held on a chip, and binding of the other changes the refractive index at the surface.

Test [3] deals with T2, cynomolgus monkey PVRIG expressed on cells (cynomolgus monkey, UniProt A0A2K5WVV8 1-322).
T2 construct: whole, on cells; also called Monkey PVRIG FACS; cells overexpressing cynomolgus monkey PVRIG
T2 sequence: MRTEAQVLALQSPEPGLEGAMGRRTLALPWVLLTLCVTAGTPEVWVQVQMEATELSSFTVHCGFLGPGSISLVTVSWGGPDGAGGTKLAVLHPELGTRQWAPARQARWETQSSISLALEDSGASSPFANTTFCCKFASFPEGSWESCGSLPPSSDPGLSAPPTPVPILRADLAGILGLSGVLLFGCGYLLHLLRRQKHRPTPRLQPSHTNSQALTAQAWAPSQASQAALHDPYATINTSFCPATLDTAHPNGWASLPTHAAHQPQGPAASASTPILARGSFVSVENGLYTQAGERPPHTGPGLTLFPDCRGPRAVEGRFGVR
Description: FACS, cells overexpressing target. The method, then:
(§3) The expression plasmid carrying human or cynomolgus monkey PVRIG gene sequence was transfected into HEK293 cells, and the over-expressing stable transfection monoclonal cell strain was obtained by antibiotic screening and infinite dilution. Overexpressing cells were seeded into a 96-well plate at 2×10⁵ cells/per well. The cells were centrifuged at 300 g for 5 min, the supernatant was then removed, 100 μL of the test antibody was added, and the mixture was incubated at 4° C. for 1 h. The mixture was centrifuged, the supernatant was removed, the plate was washed 3 times with 200 μL of wash buffer (PBS+2% FBS), and then 100 μL of an anti-human IgG secondary antibody (Invitrogen, A-11013) labeled with Alexa Fluor 488 diluted at 1:500 was added. The mixture was incubated at 4° C. for 1 h. The plate was centrifuged, and the supernatant was removed. The plate was washed 3 times with 200 μL of wash buffer (PBS+2% FBS). The cells were resuspended in 100 μL of PBS and tested on a flow cytometer (BD FACS Calibur or BD FACS Canto_II).
(§4) Binding of the humanized anti-PVRIG/TIGIT bispecific antibodies to human and cynomolgus monkey PVRIG and their blocking of the ligand of human PVRIG were detected according to the methods of Examples 4, 5 and 6.
(In general: A flow cytometer gives signals particle by particle.)

The target of test [4] is T3, human PVRIG expressed on cells (human, UniProt Q6DKI7 41-326).
T3 construct: whole, on cells; also called Human PVRIG FACS; cells overexpressing human PVRIG
T3 sequence (looked up): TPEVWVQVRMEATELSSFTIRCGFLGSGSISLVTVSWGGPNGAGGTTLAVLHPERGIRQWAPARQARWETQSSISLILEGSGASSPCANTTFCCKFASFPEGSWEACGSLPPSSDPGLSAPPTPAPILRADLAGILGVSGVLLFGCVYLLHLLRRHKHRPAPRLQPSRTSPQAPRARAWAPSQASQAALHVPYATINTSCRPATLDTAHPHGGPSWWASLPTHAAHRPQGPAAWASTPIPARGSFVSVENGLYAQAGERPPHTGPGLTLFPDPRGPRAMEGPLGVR
Description: FACS, cells overexpressing target. The method, then: as §3, §4

The target of test [5] is T4, mouse IgG2a Fc-tagged human PVRIG (h-PVRIG-mIgG2a Fc) recombinant protein (human, UniProt Q6DKI7 41-171, limits assumed).
T4 construct: bought from Acrobiosystems; not shown: mouse IgG2a Fc tag
T4 sequence (looked up): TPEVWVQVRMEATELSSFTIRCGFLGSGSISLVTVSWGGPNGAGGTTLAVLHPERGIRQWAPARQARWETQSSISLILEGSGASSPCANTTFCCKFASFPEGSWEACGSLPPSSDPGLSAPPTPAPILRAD
Description: competition ELISA; human PVRIG coated, competitor human PVRL2. As to the method: The h-PVRIG-mIgG2a Fc protein (at a concentration of 1 μg/mL) was coated on the 96-well microplate at 100 μL per well, and incubated overnight at 4° C. The plate was washed three times with wash buffer at 250 μL per well. For each wash, the plate was shaken for 10 s to ensure adequate cleaning. A blocking solution was added at 300 μL/well, and the plate was incubated at room temperature for 1 h. The plate was washed three times with wash buffer at 250 μL per well. For each wash, the plate was shaken for 10 s to ensure adequate cleaning. 50 μL of diluted test anti-PVRIG antibody and 50 μL of his-tagged ligand PVRL2 were added to each well, and the plate was incubated at 37° C. for 1 h. The plate was washed three times with wash buffer at 250 μL per well. The HRP-labeled anti-his-tagged secondary antibody (Genscrpit) diluted at 1:2000 was added at 100 μL per well. The plate was incubated at 37° C. for 1 h. The plate was washed three times with wash buffer at 250 μL per well. TMB was added at 100 μL/well, and the plate was incubated in the dark for 15 min. 0.16 M sulfuric acid was added at 50 μL/well. OD values at 450 nm were measured using a Thermo MμtLtiSkanFc microplate reader, and the IC₅₀ values of the anti-PVRIG antibodies blocking the binding of PVRIG to PVRL2 were calculated.
as §4

Test [6] concerns the target T5, his-tagged human PVRIG (h-PVRIG-his) recombinant protein (human, UniProt Q6DKI7 41-171, limits assumed).
T5 construct: bought from Acrobiosystems; also called Human PVRIG-his; human PVRIG recombinant protein; not shown: his tag
T5 sequence (looked up): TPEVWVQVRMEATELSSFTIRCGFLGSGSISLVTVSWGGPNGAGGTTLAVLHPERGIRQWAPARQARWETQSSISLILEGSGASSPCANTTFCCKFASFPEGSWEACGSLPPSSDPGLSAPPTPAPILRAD
Description: ELISA, coated antigen. As to the method:
as §1, §4

Test [7] deals with T6, his-tagged cynomolgus monkey PVRIG (cyno-PVRIG-his) recombinant protein (cynomolgus monkey).
T6 construct: expressed in HEK293, purified by Ni-NTA; also called Monkey PVRIG-his; cynomolgus monkey PVRIG recombinant protein
T6 chain: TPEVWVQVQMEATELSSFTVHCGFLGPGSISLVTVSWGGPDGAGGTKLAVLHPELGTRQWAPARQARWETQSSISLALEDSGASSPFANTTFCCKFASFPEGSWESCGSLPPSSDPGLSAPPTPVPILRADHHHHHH
Description: ELISA, coated antigen. The method, then:
as §1, §4

In test [8] the target is T7, cynomolgus monkey TIGIT expressed on cells (cynomolgus monkey, UniProt A0A7N9I9V4 89-312).
T7 construct: whole, on cells; also called cells overexpressing cynomolgus monkey TIGIT
T7 sequence (A0A7N9I9V4 entry or part of it): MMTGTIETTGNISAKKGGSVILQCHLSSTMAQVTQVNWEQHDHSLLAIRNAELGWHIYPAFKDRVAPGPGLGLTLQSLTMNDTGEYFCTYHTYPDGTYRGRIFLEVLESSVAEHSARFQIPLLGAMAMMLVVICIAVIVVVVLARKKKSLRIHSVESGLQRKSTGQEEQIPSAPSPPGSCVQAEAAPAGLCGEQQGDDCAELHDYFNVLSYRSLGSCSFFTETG
Description: FACS, cells overexpressing target. The method, then:
as §3, §2

cynomolgus monkey TIGIT recombinant protein, sequence (A0A7N9I9V4 entry or part of it): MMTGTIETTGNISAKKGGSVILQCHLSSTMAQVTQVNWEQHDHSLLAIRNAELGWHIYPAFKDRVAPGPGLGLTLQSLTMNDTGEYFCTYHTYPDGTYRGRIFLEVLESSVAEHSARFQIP

B1: humanized anti-PVRIG/TIGIT bispecific antibody 1708-151H7 (bispecific antibody, human IgG4 S228P, kappa)
heavy: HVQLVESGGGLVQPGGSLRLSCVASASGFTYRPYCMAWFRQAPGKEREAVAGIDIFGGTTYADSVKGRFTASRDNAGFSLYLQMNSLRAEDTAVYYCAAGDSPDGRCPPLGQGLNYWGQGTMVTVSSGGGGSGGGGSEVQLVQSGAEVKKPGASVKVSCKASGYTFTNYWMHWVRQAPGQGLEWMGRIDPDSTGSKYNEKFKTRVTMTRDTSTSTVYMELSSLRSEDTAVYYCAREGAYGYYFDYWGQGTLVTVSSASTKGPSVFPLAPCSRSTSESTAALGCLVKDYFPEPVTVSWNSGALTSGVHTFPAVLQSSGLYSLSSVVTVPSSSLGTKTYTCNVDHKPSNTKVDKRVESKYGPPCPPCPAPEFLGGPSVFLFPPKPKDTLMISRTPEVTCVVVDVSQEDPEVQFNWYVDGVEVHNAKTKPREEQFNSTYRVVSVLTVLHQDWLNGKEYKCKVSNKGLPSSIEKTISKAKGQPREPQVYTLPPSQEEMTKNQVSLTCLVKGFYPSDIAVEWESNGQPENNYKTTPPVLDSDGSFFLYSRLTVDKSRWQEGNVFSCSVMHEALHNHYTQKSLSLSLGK
light: DIQMTQSPSSLSASVGDRVTITCRASENIYSYLAWYQQKPGKSPKLLIYNARTLAEGVPSRFSGSGSGTDFTLTISSLQPEDFATYYCQYHSGSPLPFGGGTKVEIKRTVAAPSVFIFPPSDEQLKSGTASVVCLLNNFYPREAKVQWKVDNALQSGNSQESVTEQDSKDSTYSLSSTLTLSKADYEKHKVYACEVTHQGLSSPVTKSFNRGEC
One may read the EC50 as the concentration giving half of the maximal effect. Broadly, the Kd is the equilibrium constant for the complex coming apart. One may read the koff as the first-order rate constant of dissociation. One may read the kon as the second-order rate constant of association. As usually defined, the IC50 is the concentration that inhibits the measured activity by half. B1: the EC50 in test [1] turned out to be 119 pM; in test [3], 11500 pM; in test [4], 43 pM; in test [6] it was 679 pM; in test [7] it was 9440 pM; in test [8] it was 12 pM. The molecule also gave a Kd in test [2] of 125 pM. The same molecule registered a koff in test [2] of 0.000757 s⁻¹. Besides, in test [2], the kon amounted to 6.06e+06 M⁻¹ s⁻¹. The IC50 in test [5] was determined as 598 pM.
